In article PMC3093407:

Key:
[1] = target: CFP-tagged human αB-crystallin wild-type (human) (UniProt P02511); assay: FRET or BRET; acceptor photobleaching in living HeLa cells co-transfected for 48 h; CFP fusion as donor, YFP fusion as acceptor bleached at 514 nm; FRET efficiency from ten images per construct, three experiments; room temperature
[2] = target: CFP-tagged human αA-crystallin wild-type (human) (UniProt P02489); assay: as above

UniProt P02511, sequence (P02511 whole entry, the tested form may be a part): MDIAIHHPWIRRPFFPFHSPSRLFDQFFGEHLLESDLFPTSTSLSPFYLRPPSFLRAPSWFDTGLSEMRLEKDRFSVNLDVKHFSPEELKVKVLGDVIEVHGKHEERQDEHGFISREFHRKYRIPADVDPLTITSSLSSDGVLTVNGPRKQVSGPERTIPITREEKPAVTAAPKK

FRET efficiency against αBwt/αAwt [1] | FRET efficiency against αAwt/αAwt [2] | Substance
2 fold | 50 % higher | YFP-tagged C-terminal truncated human αA-crystallin αA172 (from UniProt P02489 1-172) (domain or fragment)
 | 30 % lower | YFP-tagged C-terminal truncated human αA-crystallin αA162 (from UniProt P02489 1-162) (domain or fragment)
 | 30 % lower | YFP-tagged C-terminal truncated human αA-crystallin αA168 (from UniProt P02489 1-168) (domain or fragment)
